Bridge positions count the residues as written; N and C are the ends. Square brackets hold non-standard residues; d marks the D form. Ends that are not written are not given here. * marks the point of attachment. 5‑TAMRA = CN(C)c1ccc2c(-c3ccc(C(=O)*)cc3C(=O)[O-])c3ccc(N(C)C)cc3[o+]c2c1; n3 = azido unnatural amino acid, 3 CH2 in side chain; Lys(N3) = [N-]=[N+]=NCCCC[C@H](N)C(=O)O; Dap(N3) = [N-]=[N+]=NC[C@H](N)C(=O)O; Aha = [N-]=[N+]=NCC[C@H](N)C(=O)O; m3c = not defined here; m3 = not defined here; m4 = not defined here; m5 = not defined here; Ahx = NCCCCCC(=O)O
T1: human tankyrase 2 ankyrin repeat cluster 4 (TNKS2 ARC4, residues 488-649) (human, UniProt Q9H2K2 488-649)
T1 sequence (looked up): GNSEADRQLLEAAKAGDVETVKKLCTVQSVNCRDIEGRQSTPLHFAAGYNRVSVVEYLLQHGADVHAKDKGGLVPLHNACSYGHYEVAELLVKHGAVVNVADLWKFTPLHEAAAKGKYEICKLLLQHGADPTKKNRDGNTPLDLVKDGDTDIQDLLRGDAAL

T2: human tankyrase 1 ankyrin repeat clusters 2-3 (TNKS1 ARC2-3, residues 315-662) (human, UniProt O95271 315-662)
T2 sequence (looked up): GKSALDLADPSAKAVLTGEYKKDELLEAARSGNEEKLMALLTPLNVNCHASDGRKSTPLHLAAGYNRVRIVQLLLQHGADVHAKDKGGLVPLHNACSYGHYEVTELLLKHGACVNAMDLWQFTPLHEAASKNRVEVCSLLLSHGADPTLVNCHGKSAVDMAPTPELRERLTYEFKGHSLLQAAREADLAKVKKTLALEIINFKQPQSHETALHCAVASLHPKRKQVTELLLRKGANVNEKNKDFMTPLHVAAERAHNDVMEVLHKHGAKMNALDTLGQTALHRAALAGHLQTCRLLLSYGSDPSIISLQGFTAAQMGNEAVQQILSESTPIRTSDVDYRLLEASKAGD


How the values were obtained:
Settings in all cases: both partners purified
[1] = target: T1, human tankyrase 2 ankyrin repeat …; assay: fluorescence polarisation; competition: unlabeled peptide or Axin1 fragment diluted 2-fold serially against TAMRA-labeled pep1 (20 nM) with TNKS2 ARC4 (3 uM); PBS, 0.05% Tween 20; 30 min, 25 C
[2] = target: T1, human tankyrase 2 ankyrin repeat …; assay: fluorescence polarisation; direct: TNKS2 ARC4 or TNKS1 ARC2-3 diluted 2-fold serially (40-0 uM, 50 uL) and mixed with TAMRA-labeled peptide (20 nM, 50 uL); 50 mM HEPES pH 7.5, 300 mM NaCl, 2 mM DTT, 0.05% Tween 20; 30 min, 25 C
[3] = target: T2, human tankyrase 1 ankyrin repeat …; assay: ITC; TNKS2 ARC4 (160-280 uM) or TNKS1 ARC2-3 (60-150 uM) titrated into the cell with unlabeled peptide (5-15 uM) or Axin1 fragment (8-12 uM); PBS, 0.5 mM TCEP; 25 C; one-site model; stoichiometry = TNKS per peptide or Axin1
[4] = target: T1, human tankyrase 2 ankyrin repeat …; assay: as above

Binder | Kd [1] [µM] | Kd [2] [µM] | other results
Ac-R[Lys(N3)]AGDGE[Lys(N3)] (bridge 2-8; not fully specified (bridges)) [cp3n4m7N] | 35.5 ± 2.5 |  | 
{5‑TAMRA-Ahx}-RE[n3]GDG[Aha]E (triazole 3-7 via m3c; reading uncertain) [T-cp4n32m3c] |  | 15.3 ± 0.6 | 
{5‑TAMRA-Ahx}-RE[Aha]GDG[Dap(N3)]E (triazole 3-7 via m3; reading uncertain) [T-cp4n21m3] |  | 22.8 ± 1.3 | 
{5‑TAMRA-Ahx}-RE[Dap(N3)]GDG[Dap(N3)]E (triazole 3-7 via m4; reading uncertain) [T-cp4n1m4] |  | 61.8 ± 33.9 | 
{5‑TAMRA-Ahx}-RE[Aha]GDG[n3]E (triazole 3-7 via m3c; reading uncertain) [T-cp4n23m3c] |  | 15.5 ± 0.6 | 
Ac-RE[Lys(N3)]GDG[Lys(N3)]E (bridge 3-7; not fully specified (bridges)) [cp4n4m5c] | 16.7 ± 2 |  | 
{5‑TAMRA-Ahx}-RE[n3]GDG[Aha]E (triazole 3-7 via m5; reading uncertain) [T-cp4n32m5] |  | 4.2 ± 0.12 | 
{5‑TAMRA-Ahx}-RE[n3]GDG[n3]E (bridge 3-7; not fully specified (bridges)) [T-cp4n3m3c] |  | 15.4 ± 0.6 | 
Ac-R[Lys(N3)]AGDGE[Lys(N3)] (bridge 2-8; not fully specified (bridges)) [cp3n4m5] | 23.4 ± 4.2 |  | 
Ac-RE[Lys(N3)]GDGE[Lys(N3)] (bridge 3-8; not fully specified (bridges)) [cp5n4m5c] | 13.9 ± 2.1 |  | 
{5‑TAMRA-Ahx}-RE[Aha]GDG[n3]E (triazole 3-7 via m4; reading uncertain) [T-cp4n23m4] |  | 1.7 ± 0.05 | 
Ac-RE[Aha]GDG[Aha]E-NH2 (bridge 3-7; not fully specified (bridges)) [cp4n2m3c (unlabeled)] |  |  | Kd [3]: 0.37 ± 0.04 µM; stoichiometry N [3]: 1.1 ± 0.02; Kd [4]: 0.64 ± 0.01 µM; stoichiometry N [4]: 1.1 ± 0.002
Ac-RE[Lys(N3)]GDG[Lys(N3)]E-NH2 (bridge 3-7; not fully specified (bridges)) [cp4n4m5] | 2.8 ± 0.1 |  | 
{5‑TAMRA-Ahx}-RE[n3]GDG[Aha]E (triazole 3-7 via m3; reading uncertain) [T-cp4n32m3] |  | 6.1 ± 0.2 | 
{5‑TAMRA-Ahx}-RE[Aha]GDG[Dap(N3)]E (triazole 3-7 via m5; reading uncertain) [T-cp4n21m5] |  | 13.6 ± 1.1 | 
Ac-R[n3]AGDG[n3]E (bridge 2-7; not fully specified (bridges)) [cp2n3m7N] | 14.7 ± 0.8 |  | 
Ac-REAGDGEE-NH2 [pep1 (unlabeled linear consensus peptide Ac-REAGDGEE)] |  |  | stoichiometry N [3]: 0.9 ± 0.01; Kd [4]: 1.18 ± 0.04 µM; stoichiometry N [4]: 1 ± 0.004
{5‑TAMRA-Ahx}-RE[n3]GDG[Aha]E (triazole 3-7 via m4; reading uncertain) [T-cp4n32m4] |  | 11.1 ± 0.9 | 
Ac-RE[Lys(N3)]GDGE[Lys(N3)] (bridge 3-8; not fully specified (bridges)) [cp5n4m5] | 7.9 ± 1.2 |  | 
{5‑TAMRA-Ahx}-RE[Aha]GDG[n3]E (triazole 3-7 via m5; reading uncertain) [T-cp4n23m5] |  | 4.3 ± 0.2 | 
{5‑TAMRA-Ahx}-RE[Dap(N3)]GDG[Aha]E (triazole 3-7 via m3; reading uncertain) [T-cp4n12m3] |  | 12.5 ± 0.5 | 
Ac-RE[Lys(N3)]GDG[Lys(N3)]E (bridge 3-7; not fully specified (bridges)) [cp4n4m7N] | 6.5 ± 0.2 |  | 
Ac-R[Aha]AGDG[Aha]E (bridge 2-7; not fully specified (bridges)) [cp2n2m7N] | 53.3 ± 8.3 |  | 
Ac-RE[Aha]GDG[Aha]E-NH2 (triazole 3-7 via m3; reading uncertain) [cp4n2m3 (unlabeled)] |  |  | Kd [3]: 0.26 ± 0.03 µM; stoichiometry N [3]: 0.9 ± 0.01; Kd [4]: 0.89 ± 0.04 µM; stoichiometry N [4]: 0.9 ± 0.005
Ac-R[Lys(N3)]AGDG[Lys(N3)]E (bridge 2-7; not fully specified (bridges)) [cp2n4m5] | 14.1 ± 4 |  | 
Ac-R[Lys(N3)]AGDG[Lys(N3)]E (bridge 2-7; not fully specified (bridges)) [cp2n4m7N] | 32.4 ± 1.7 |  | 
{5‑TAMRA-Ahx}-RE[Aha]GDG[Dap(N3)]E (triazole 3-7 via m4; reading uncertain) [T-cp4n21m4] |  | 5.8 ± 0.2 | 
{5‑TAMRA-Ahx}-RE[Dap(N3)]GDG[Aha]E (triazole 3-7 via m5; reading uncertain) [T-cp4n12m5] |  | 7.7 ± 0.3 | 
{5‑TAMRA-Ahx}-RE[Dap(N3)]GDG[Aha]E (triazole 3-7 via m4; reading uncertain) [T-cp4n12m4] |  | 8.9 ± 0.3 | 

Reference: PMC5358875 (Journal of the American Chemical Society, 2017)
